# Results published in patent US20220411531A1 (SUMGEN MAB BEIJING BIOTECH, published 2022).
# T1: AXL on the surfaces of human tumour cells (A549, MDA-MB-231, 786-O) (human, UniProt P30530 27-894)
# T1 construct: Endogenous AXL on human tumour cell lines; The tie to the cell-line protein rests on this general definition only; also called cell surface antigen
# T1 sequence: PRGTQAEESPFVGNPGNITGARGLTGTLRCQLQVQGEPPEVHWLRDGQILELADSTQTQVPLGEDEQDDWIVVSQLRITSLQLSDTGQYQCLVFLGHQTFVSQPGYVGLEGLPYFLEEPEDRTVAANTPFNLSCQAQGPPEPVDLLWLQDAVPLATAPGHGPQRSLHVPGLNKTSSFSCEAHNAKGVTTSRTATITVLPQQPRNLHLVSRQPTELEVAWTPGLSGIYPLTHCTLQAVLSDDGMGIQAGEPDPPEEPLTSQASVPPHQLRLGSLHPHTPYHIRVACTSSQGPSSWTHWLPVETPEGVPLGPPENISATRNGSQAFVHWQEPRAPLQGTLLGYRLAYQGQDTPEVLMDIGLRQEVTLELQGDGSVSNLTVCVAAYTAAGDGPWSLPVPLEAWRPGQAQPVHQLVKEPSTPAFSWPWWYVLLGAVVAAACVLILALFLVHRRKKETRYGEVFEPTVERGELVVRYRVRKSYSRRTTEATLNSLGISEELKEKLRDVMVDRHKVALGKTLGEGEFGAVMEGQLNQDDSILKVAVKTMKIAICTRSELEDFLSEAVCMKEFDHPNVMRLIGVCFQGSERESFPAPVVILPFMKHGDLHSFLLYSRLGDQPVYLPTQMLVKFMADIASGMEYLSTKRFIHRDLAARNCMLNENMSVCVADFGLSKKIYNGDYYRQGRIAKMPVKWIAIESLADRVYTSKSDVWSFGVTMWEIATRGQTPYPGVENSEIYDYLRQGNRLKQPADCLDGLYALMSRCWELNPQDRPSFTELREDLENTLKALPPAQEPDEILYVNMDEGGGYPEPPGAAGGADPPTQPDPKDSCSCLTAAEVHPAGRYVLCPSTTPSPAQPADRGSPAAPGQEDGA
# Assays:
# [1] = biological target: T1, AXL on the surfaces of human tumour …; assay: flow cytometry on 786-O cells (second experiment, FIG. 10); 786-O cells; FIG. 10
# Procedure: (§1) Cells in a logarithmic growth phase were collected; the cell density was regulated to 5×10⁶ cells/mL; and pre-cooling was performed on ice. The antibodies 6G12M11, 6G12M21, 6G12M31, and 6G12M41 were diluted to 20 μg/ml with pre-cooled normal saline containing 2% FBS. 100 μl of cells were taken, and an equal volume of each of the foregoing diluted antibodies was added to the cells to react for 30 minutes at 4° C. in the dark. After the completion of reaction, the cells were washed twice with pre-cooled physiological saline containing 2% FBS (6000 rpm, 45 s). The secondary antibody PE Mouse Anti-Human IgG (BD Pharmingen) was diluted at 1:5 with pre-cooled physiological saline containing 2% FBS, and 100 μL of the secondary antibody was taken for resuspending the cells, with a reaction conducted for 30 minutes at 4° C. in the dark. After the reaction, the cells were washed twice with pre-cooled physiological saline containing 2% FBS (6000 rpm, 45 s). The cells were resuspended by using 400 μl of 1% paraformaldehyde. The binding of antibodies to cell surface antigens was analyzed by means of a flow cytometer (BD Calibur).
# [2] = biological target: T1, AXL on the surfaces of human tumour …; assay: flow cytometry on MDA-MB-231 cells (second experiment, FIG. 9); MDA-MB-231 cells; FIG. 9
# Procedure: as §1
# [3] = biological target: T1, AXL on the surfaces of human tumour …; assay: flow cytometry on MDA-MB-231 cells
# Procedure: as §1
# [4] = biological target: T1, AXL on the surfaces of human tumour …; assay: flow cytometry on 786-O cells
# Procedure: as §1
# [5] = biological target: T1, AXL on the surfaces of human tumour …; assay: flow cytometry on A549 cells
# Procedure: as §1
# [6] = biological target: T1, AXL on the surfaces of human tumour …; assay: flow cytometry on MDA-MB-231 cells (second experiment, FIG. 9); MDA-MB-231 cells; second experiment, FIG. 9
# Procedure: as §1
# [7] = biological target: T1, AXL on the surfaces of human tumour …; assay: flow cytometry on 786-O cells (second experiment, FIG. 10); 786-O cells; second experiment, FIG. 10
# Procedure: as §1
Binder,EC50 [1] [µg/mL],EC50 [2] [µg/mL],EC50 [3] [µg/mL],EC50 [4] [µg/mL],EC50 [5] [µg/mL],EC50 [6] [µg/mL],EC50 [7] [µg/mL]
"antibody 6G12M31 (antibody, V domains shown) VH: QVQLVQSGPGLVKPSQSLSLTCSVTGFSISSGYYWNWIRQFPGQKLEWMGYRSYDGSNNYDPSLKNRISITRDTSKNQFFLKLNSVTSEDTATYYCARGWLLHYTMDYWGQGTTVTVSS VL: DIVMTQSPSSVSVTLGQSASISCRSSRSLLHSNGFTYLYWYLQKPGQSPQLLIYQMSNLASGVPDRFSGSGSGTDFTLKISRVEAEDVGVYYCGQNLELPLTFGGGTKLEIK",0.53,0.6,–,–,–,–,–
"antibody 6G12M11 (antibody, human IgG1, kappa, V domains shown) VH: QVQLVQSGPGLVKPSQSLSLTCAVTGFSISSGYYWNWIRQFPGQKLEWMGYRSYDGSNNYNPSLKNRISITRDTSKNQFFLKLNSVTSEDTATYYCARGWLLHYTMDYWGQGTTVTVSS VL: EIVMTQSPSSVSVTLGQSASISCRSSRSLLHSNGFTYLYWYLQKPGQSPQLLIYQMSNLASGVPDRFSGSGSGTDFTLKISRVEAEDVGVYYCGQNLELPLTFGGGTKLEIKR",–,–,0.59,0.43,0.46,–,–
"antibody 6G12M21 (antibody, human IgG1, kappa, V domains shown) VH: QVQLVQSGPGLVKPSQSLSLTCSVTGFSISSGYYWNWIRQFPGQKLEWMGYRSYDGSNNYNPSLKNRISITRDTSKNQFFLKLNSVTSEDTATYYCARGWLLHYTMDYWGQGTTVTVSS VL: DIVMTQSPSSVSVTLGQSASISCRSSRSLLHSNGFTYLYWYLQKPGQSPQLLIYQMSNLASGVPDRFSGSGSGTDFTLKISRVEAEDVGVYYCGQNLELPLTFGGGTKLEIKR",–,–,0.39,0.31,0.78,0.64,0.4
"antibody 6G12M41 (antibody, V domains shown) VH: QVQLVQSGPGLVKPSQSLSLTCSVTGFSISSGYYWNWIRQFPGQKLEWMGYRSYDGSNNYGPSLKNRISITRDTSKNQFFLKLNSVTSEDTATYYCARGWLLHYTMDYWGQGTTVTVSS VL: DIVMTQSPSSVSVTLGQSASISCRSSRSLLHSNGFTYLYWYLQKPGQSPQLLIYQMSNLASGVPDRFSGSGSGTDFTLKISRVEAEDVGVYYCGQNLELPLTFGGGTKLEIK",0.47,0.54,–,–,–,–,–
